The values below come from the Human Domainome abundance scans (Beltran et al. 2025).

± gives the uncertainty stated by the source.

A short description of the data set: abundance fitness (aPCA) (normalised: wild type 0, dead -1); higher = more abundant; growth selection in yeast, the domain comes from the species named. Particulars: Homo sapiens.
For “BAG family molecular chaperone regulator 3 P24Q, O95817”, the abundance fitness is -0.21 ± 0.14.
The result for “BAG family molecular chaperone regulator 3 P24R, O95817” reads -0.037 ± 0.085.
The result for “BAG family molecular chaperone regulator 3 P24S, O95817” reads 0.456 ± 0.099.
Turning to “BAG family molecular chaperone regulator 3 P24T, O95817”, the abundance fitness is -0.036 ± 0.086.
In the case of “BAG family molecular chaperone regulator 3 P24V, O95817”, the abundance fitness is -0.784 ± 0.23.
On to “BAG family molecular chaperone regulator 3 P24W, O95817”, for which the abundance fitness was -0.659 ± 0.21.
The result for “BAG family molecular chaperone regulator 3 P24Y, O95817” reads -0.31 ± 0.28; that for “BAG family molecular chaperone regulator 3 P32A, O95817”, -0.735 ± 0.17.
Then “BAG family molecular chaperone regulator 3 P32D, O95817”, with -0.64 ± 0.39.
Turning to “BAG family molecular chaperone regulator 3 P32E, O95817”, the abundance fitness was -0.285 ± 0.13.
The result for “BAG family molecular chaperone regulator 3 P32F, O95817” reads -0.511 ± 0.47; that for “BAG family molecular chaperone regulator 3 P32G, O95817”, 0.335 ± 0.076; that for “BAG family molecular chaperone regulator 3 P32K, O95817”, -0.002 ± 0.068.
The result for “BAG family molecular chaperone regulator 3 P32L, O95817” reads -0.458 ± 0.12; that for “BAG family molecular chaperone regulator 3 P32M, O95817”, -0.766 ± 0.23.
Then “BAG family molecular chaperone regulator 3 P32N, O95817”, with 0.039 ± 0.29.
The substance “BAG family molecular chaperone regulator 3 P32Q, O95817” displayed an abundance fitness of -0.205 ± 0.28.
The result for “BAG family molecular chaperone regulator 3 P32R, O95817” reads 0.039 ± 0.074.
Then “BAG family molecular chaperone regulator 3 P32S, O95817”, with -0.054 ± 0.087; and “BAG family molecular chaperone regulator 3 P32T, O95817”, with 0.423 ± 0.071; and “BAG family molecular chaperone regulator 3 P32V, O95817”, with -0.268 ± 0.13.
Regarding “BAG family molecular chaperone regulator 3 P32W, O95817”, the abundance fitness is -0.316 ± 0.095.
Then “BAG family molecular chaperone regulator 3 P32Y, O95817”, with -0.23 ± 0.38; and “BAG family molecular chaperone regulator 3 P37A, O95817”, with 0.4 ± 0.12; and “BAG family molecular chaperone regulator 3 P37C, O95817”, with 0.143 ± 0.2.
For “BAG family molecular chaperone regulator 3 P37D, O95817”, the abundance fitness came out at 0.447 ± 0.16.
Then “BAG family molecular chaperone regulator 3 P37E, O95817”, with 0.86 ± 0.092.
Then “BAG family molecular chaperone regulator 3 P37F, O95817”, with 0.528 ± 0.17.
For the substance “BAG family molecular chaperone regulator 3 P37G, O95817”, the abundance fitness came to 0.024 ± 0.084.
The result for “BAG family molecular chaperone regulator 3 P37H, O95817” reads 0.517 ± 0.18.
The result for “BAG family molecular chaperone regulator 3 P37I, O95817” reads 0.485 ± 0.08.
Then “BAG family molecular chaperone regulator 3 P37K, O95817”, with 0.937 ± 0.12; and “BAG family molecular chaperone regulator 3 P37L, O95817”, with 0.128 ± 0.067; and “BAG family molecular chaperone regulator 3 P37M, O95817”, with 0.465 ± 0.12.
In turn, “BAG family molecular chaperone regulator 3 P37N, O95817” showed an abundance fitness of 0.448 ± 0.2.
The result for “BAG family molecular chaperone regulator 3 P37Q, O95817” reads 0.24 ± 0.16.
Then “BAG family molecular chaperone regulator 3 P37R, O95817”, with 0.857 ± 0.077; and “BAG family molecular chaperone regulator 3 P37S, O95817”, with 0.7 ± 0.072; and “BAG family molecular chaperone regulator 3 P37T, O95817”, with 0.898 ± 0.11.
The result for “BAG family molecular chaperone regulator 3 P37V, O95817” reads 0.358 ± 0.079.
In turn, “BAG family molecular chaperone regulator 3 P37W, O95817” showed an abundance fitness of 0.115 ± 0.086.
The result for “BAG family molecular chaperone regulator 3 P37Y, O95817” reads 0.573 ± 0.18; that for “BAG family molecular chaperone regulator 3 P52A, O95817”, -0.727 ± 0.16.
The result for “BAG family molecular chaperone regulator 3 P52C, O95817” reads -0.092 ± 0.3; that for “BAG family molecular chaperone regulator 3 P52D, O95817”, -0.542 ± 0.42.
The result for “BAG family molecular chaperone regulator 3 P52E, O95817” reads -0.948 ± 0.38; that for “BAG family molecular chaperone regulator 3 P52G, O95817”, -0.389 ± 0.1; that for “BAG family molecular chaperone regulator 3 P52H, O95817”, -0.542 ± 0.48.
As for “BAG family molecular chaperone regulator 3 P52K, O95817”, the abundance fitness is -0.039 ± 0.22.
The substance “BAG family molecular chaperone regulator 3 P52L, O95817” gave an abundance fitness of -0.741 ± 0.12.
Then “BAG family molecular chaperone regulator 3 P52M, O95817”, with -1.07 ± 0.46; and “BAG family molecular chaperone regulator 3 P52R, O95817”, with -0.633 ± 0.12; and “BAG family molecular chaperone regulator 3 P52S, O95817”, with -0.303 ± 0.11.
Then “BAG family molecular chaperone regulator 3 P52T, O95817”, with -1.12 ± 0.39; and “BAG family molecular chaperone regulator 3 P52W, O95817”, with -0.837 ± 0.22.
With “BAG family molecular chaperone regulator 3 P55A, O95817”, the abundance fitness came out at 0.013 ± 0.078.
The result for “BAG family molecular chaperone regulator 3 P55C, O95817” reads 0.133 ± 0.29; that for “BAG family molecular chaperone regulator 3 P55D, O95817”, -0.281 ± 0.39.
As for “BAG family molecular chaperone regulator 3 P55E, O95817”, the abundance fitness was -0.8 ± 0.36.
Then “BAG family molecular chaperone regulator 3 P55F, O95817”, with -0.012 ± 0.13; and “BAG family molecular chaperone regulator 3 P55H, O95817”, with -0.636 ± 0.46; and “BAG family molecular chaperone regulator 3 P55I, O95817”, with 0.135 ± 0.16.
The result for “BAG family molecular chaperone regulator 3 P55K, O95817” reads -0.094 ± 0.12.
Then “BAG family molecular chaperone regulator 3 P55L, O95817”, with -0.133 ± 0.095; and “BAG family molecular chaperone regulator 3 P55M, O95817”, with -0.356 ± 0.2; and “BAG family molecular chaperone regulator 3 P55Q, O95817”, with 0.081 ± 0.19.
Consider “BAG family molecular chaperone regulator 3 P55R, O95817”, for which the abundance fitness is -0.306 ± 0.11.
Then “BAG family molecular chaperone regulator 3 P55S, O95817”, with 0.153 ± 0.17; and “BAG family molecular chaperone regulator 3 P55T, O95817”, with -0.427 ± 0.23; and “BAG family molecular chaperone regulator 3 P55W, O95817”, with -0.508 ± 0.28.
The result for “BAG family molecular chaperone regulator 3 P55Y, O95817” reads -0.018 ± 0.29; that for “BAG family molecular chaperone regulator 3 P59V, O95817”, 0.263 ± 0.34.
Then “BAG family molecular chaperone regulator 3 Q11A, O95817”, with 0.495 ± 0.34.
“BAG family molecular chaperone regulator 3 Q11D, O95817”: the abundance fitness was -0.046 ± 0.4.
On to “BAG family molecular chaperone regulator 3 Q11G, O95817”, for which the abundance fitness turned out to be 0.771 ± 0.065.
Then “BAG family molecular chaperone regulator 3 Q11H, O95817”, with -0.246 ± 0.26.
Then “BAG family molecular chaperone regulator 3 Q11K, O95817”, with 1.01 ± 0.19; and “BAG family molecular chaperone regulator 3 Q11L, O95817”, with -0.227 ± 0.32.
Regarding “BAG family molecular chaperone regulator 3 Q11M, O95817”, the abundance fitness came out at 1.03 ± 0.39.
The result for “BAG family molecular chaperone regulator 3 Q11P, O95817” reads -0.132 ± 0.41.
The result for “BAG family molecular chaperone regulator 3 Q11R, O95817” reads 0.463 ± 0.11.
